Assays:
[1] = target: 28mer peptide of the CXCR5 antigen; assay: Antigen-ELISA; standard run with LA_09_004_8
[2] = target: 28mer peptide of the CXCR5 antigen; assay: Antigen-ELISA; standard run with LA_09_27D, T0
[3] = target: 28mer peptide of the CXCR5 antigen; assay: Antigen-ELISA; PBS 155 mM, clear glass type I + V2A piece, 24 h
[4] = target: 28mer peptide of the CXCR5 antigen; assay: Antigen-ELISA; histidine 10 mM prototype B, T0
[5] = target: 28mer peptide of the CXCR5 antigen; assay: Antigen-ELISA; Citrate 10 mM pH 7.00, after 1 week at +40°C
[6] = target: 28mer peptide of the CXCR5 antigen; assay: ELISA potency (binding); 100 mg/mL, Glycine (20) + NaCl (2), T zero
[7] = target: 28mer peptide of the CXCR5 antigen; assay: Antigen-ELISA; PBS 155 mM, amber glass type II, 24 h +40°C
[8] = target: 28mer peptide of the CXCR5 antigen; assay: Antigen-ELISA; standard run with LA_09_28A, T0
[9] = target: 28mer peptide of the CXCR5 antigen; assay: Antigen-ELISA; Citrate 10 mM pH 7.00, after mechanical stress 350 rpm 2.5 h
[10] = target: 28mer peptide of the CXCR5 antigen; assay: Antigen-ELISA; citrate 10 mM prototype B, T0
[11] = target: 28mer peptide of the CXCR5 antigen; assay: Ag-ELISA; DS in PBS, 25°C, 1 month
[12] = target: 28mer peptide of the CXCR5 antigen; assay: Antigen-ELISA; Citrate 10 mM pH 5.50, after mechanical stress 350 rpm 2.5 h
[13] = target: 28mer peptide of the CXCR5 antigen; assay: Antigen-ELISA; Acetate 10 mM pH 5.50, after 1 week at +40°C
[14] = target: 28mer peptide of the CXCR5 antigen; assay: Antigen-ELISA; acetate 10 mM prototype B, repeated values in the 3 weeks -20°C
[15] = target: 28mer peptide of the CXCR5 antigen; assay: ELISA potency (binding); 100 mg/mL, Lysine (30) + NaCl (2), T zero
[16] = target: 28mer peptide of the CXCR5 antigen; assay: Antigen-ELISA; Saline 150 mM pH 6.00, after 1 week at +40°C
[17] = target: 28mer peptide of the CXCR5 antigen; assay: Antigen-ELISA; PBS 155 mM pH 7.00, T0
[18] = target: 28mer peptide of the CXCR5 antigen; assay: Antigen-ELISA; standard run with LA_09_29D, T0
[19] = target: 28mer peptide of the CXCR5 antigen; assay: Antigen-ELISA; Histidine 10 mM pH 6.5, after 1 week at +40°C
[20] = target: 28mer peptide of the CXCR5 antigen; assay: ELISA potency (binding); 100 mg/mL, Sucrose (60) + NaCl (2), T zero
[21] = target: 28mer peptide of the CXCR5 antigen; assay: ELISA potency (binding); 100 mg/mL, Trehalose (60) + Mannitol (15), T zero
[22] = target: 28mer peptide of the CXCR5 antigen; assay: Antigen-ELISA; Histidine 10 mM pH 6, after 1 week at +40°C
[23] = target: 28mer peptide of the CXCR5 antigen; assay: Antigen-ELISA; PB 5 mM pH 7.00, after 1 week at +40°C
[24] = target: 28mer peptide of the CXCR5 antigen; assay: Antigen-ELISA; PB 10 mM pH 7.50, after mechanical stress 350 rpm 2.5 h
[25] = target: 28mer peptide of the CXCR5 antigen; assay: Potency (Antigen ELISA); stored +5°C, 9 months
[26] = target: 28mer peptide of the CXCR5 antigen; assay: Antigen-ELISA; Histidine 10 mM pH 5.5, after 1 week at +40°C

EC50 % [1]: 100% | EC50 % [2]: 100% | EC50 % [3]: 80.8% | EC50 % [4]: 118% | EC50 % [5]: 111% | rel. potency [%] [6]: 174% | EC50 % [7]: 90.1% | EC50 % [8]: 100% | EC50 % [9]: 101% | EC50 % [10]: 104% | EC50 % [11]: 106% | EC50 % [12]: 79% | EC50 % [13]: 94.9% | EC50 % [14]: 112% | rel. potency [%] [15]: 130% | EC50 % [16]: 80.9% | EC50 % [17]: 74% | EC50 % [18]: 100% | EC50 % [19]: 175% | rel. potency [%] [20]: 165% | rel. potency [%] [21]: 156% | EC50 % [22]: 77% | EC50 % [23]: 68% | EC50 % [24]: 60.9% | EC50 value (in comparison to reference) [25]: 92% | EC50 % [26]: 81%
B1: Lead CXCR5 Antibody (humanized IgG4 anti-CXCR5 antibody) (antibody, V domains shown)
VH: QVQLKESGPGLVAPSESLSITCTVSGFSLIDYGVNWIRQPPGKGLEWLGVIWGDGTTYYNPSLKSRLSISKDNSKSQVFLKVTSLTTDDTAMYYCARIVYWGQGTLVTVSA
VL: DIVMTQAAPSVAVTPGASVSISCRSSKSLLHSSGKTYLYWFLQRPGQSPQLLIYRLSSLASGVPDRFSGSGSGTAFTLRISRVEAEDVGVYYCMQHLEYPYTFGGGTKLEIKR

From patent publication US20140004106A1
